Measured values published in article PMC12263435, “Mechanistic basis for PYROXD1-mediated protection of the human tRNA ligase complex against oxidative inactivation” (Nature Structural & Molecular Biology, 2025).

T1: RTCB–PYROXD1 complex (Homo sapiens, UniProt Q8WU10)
T1 construct: PYROXD1 (GST cut, E. coli) with RTCB (N-terminal tag cut by TEV, Sf9); 1:1 complex with Mg2+ in RTCB; with RNA-splicing ligase RtcB homolog
T1 sequence (Q8WU10 1-500): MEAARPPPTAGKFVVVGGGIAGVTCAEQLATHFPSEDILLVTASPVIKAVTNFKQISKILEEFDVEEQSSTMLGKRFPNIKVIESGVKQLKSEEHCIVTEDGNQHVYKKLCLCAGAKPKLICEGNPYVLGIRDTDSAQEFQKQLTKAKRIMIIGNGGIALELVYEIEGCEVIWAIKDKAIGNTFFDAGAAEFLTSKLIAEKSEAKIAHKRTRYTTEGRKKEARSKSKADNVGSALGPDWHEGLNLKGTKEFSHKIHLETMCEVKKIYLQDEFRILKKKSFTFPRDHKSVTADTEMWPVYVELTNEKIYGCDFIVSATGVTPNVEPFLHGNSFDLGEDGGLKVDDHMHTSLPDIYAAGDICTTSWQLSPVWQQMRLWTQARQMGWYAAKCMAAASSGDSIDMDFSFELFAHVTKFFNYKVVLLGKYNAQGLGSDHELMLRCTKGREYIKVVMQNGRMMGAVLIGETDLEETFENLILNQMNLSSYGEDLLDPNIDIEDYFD
T1 sequence (Q9Y3I0 1-505 partner): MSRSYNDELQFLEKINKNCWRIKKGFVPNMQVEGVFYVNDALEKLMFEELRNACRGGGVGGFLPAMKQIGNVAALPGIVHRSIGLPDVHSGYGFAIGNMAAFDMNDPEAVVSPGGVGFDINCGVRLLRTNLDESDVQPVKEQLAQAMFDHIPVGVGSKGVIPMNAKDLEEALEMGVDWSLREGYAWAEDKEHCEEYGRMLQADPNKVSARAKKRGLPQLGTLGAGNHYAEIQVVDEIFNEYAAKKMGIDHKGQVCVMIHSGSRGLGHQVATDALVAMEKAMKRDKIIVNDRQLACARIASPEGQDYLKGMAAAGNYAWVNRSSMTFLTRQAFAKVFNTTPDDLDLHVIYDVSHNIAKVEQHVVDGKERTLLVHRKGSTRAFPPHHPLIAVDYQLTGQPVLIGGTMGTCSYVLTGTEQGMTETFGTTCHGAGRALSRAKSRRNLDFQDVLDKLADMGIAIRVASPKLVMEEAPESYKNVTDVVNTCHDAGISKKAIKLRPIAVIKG

T2: StrepII–GFP–RTCB (human, UniProt Q9Y3I0 1-505)
T2 construct: human RTCB (UniProt Q9Y3I0), catalytic subunit of the tRNA ligase complex; inserted into the 438-Rgfp plasmid; a TEV site lies between GFP and RTCB; In the dissociation assay it is called 2× StrepII–GFP–RTCB; also called immobilized RTCB; 2× StrepII–GFP–RTCB; source: Sf9 insect cells (baculovirus), purified (Strep-Tactin, SEC); not shown: StrepII, N-terminal, kept; super folder green fluorescent …
T2 sequence: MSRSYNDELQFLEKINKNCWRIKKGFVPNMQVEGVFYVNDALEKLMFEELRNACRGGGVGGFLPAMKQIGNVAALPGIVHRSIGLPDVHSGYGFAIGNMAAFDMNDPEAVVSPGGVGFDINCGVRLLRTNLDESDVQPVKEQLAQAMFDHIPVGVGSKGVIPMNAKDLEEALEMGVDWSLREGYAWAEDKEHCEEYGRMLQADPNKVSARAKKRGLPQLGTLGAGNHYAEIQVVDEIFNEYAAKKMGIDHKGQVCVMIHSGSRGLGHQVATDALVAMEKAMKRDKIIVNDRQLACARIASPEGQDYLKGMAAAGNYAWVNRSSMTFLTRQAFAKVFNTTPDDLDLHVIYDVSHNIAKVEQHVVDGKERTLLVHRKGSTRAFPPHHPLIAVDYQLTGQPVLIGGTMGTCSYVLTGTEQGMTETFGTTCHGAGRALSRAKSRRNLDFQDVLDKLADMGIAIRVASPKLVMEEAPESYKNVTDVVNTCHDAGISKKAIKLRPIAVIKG


Legend:
RTCB–PYROXD1 complex = biological target: T1, RTCB–PYROXD1 complex; test: cryo-EM structure, […] Å; assay type: binding; settings: prepared with 0.5 mM NADH, 5 mM MgCl2, pH 8.0, redox state NAD+ inferred (charge-transfer complex), PYROXD1 active site
StrepII–GFP–RTCB = biological target: T2, StrepII–GFP–RTCB; test: pull-down; StrepII–GFP–RTCB (0.2 nmol) immobilised on MagStrep type 3 XT beads, 0.4 nmol PYROXD1; HEPES pH 8.0, 150 mM KCl, 0.1% Tween-20, 1 mM TCEP, 0.5 mM NADH, 2.5 mM MgCl2, 2.5 mM MnCl2; 30 min at 4 °C; SDS–PAGE, Coomassie Blue; settings: both partners purified
purified protein = substrate: NC(=O)C1=CN([C@@H]2O[C@H](COP(=O)(O)OP(=O)(O)OC[C@H]3O[C@@H](n4cnc5c(N)ncnc54)[C@H](O)[C@@H]3O)[C@@H](O)[C@H]2O)C=CC1; test: purified protein; assay type: biochemical, Homo sapiens; settings: aerobic (O2 as acceptor), 20 mM Tris-HCl pH 8.0, 150 mM KCl, 0.05% Tween-20, 22 °C, text prints W293A, figure legend W239A

| Molecule | binding result (StrepII–GFP–RTCB) | other results |
| --- | --- | --- |
| Cc1cc2c(cc1C)N(C[C@H](O)[C@H](O)[C@H](O)COP(=O)(O)OP(=O)(O)OC[C@H]1O[C@@H](n3cnc4c(N)ncnc43)[C@H](O)[C@@H]1O)c1[nH]c(=O)[nH]c(=O)c1N2 [FADH^−] | – | cryo-EM structure, 3.3 Å (RTCB–PYROXD1 complex; redox state FADH- inferred): PYROXD1 coordinates FADH^− with residues including Gly18, Ala21, Thr42, Ala43 |
| NC(=O)c1ccc[n+]([C@@H]2O[C@H](COP(=O)(O)OP(=O)(O)OC[C@H]3O[C@@H](n4cnc5c(N)ncnc54)[C@H](O)[C@@H]3O)[C@@H](O)[C@H]2O)c1 [NAD^+] | – | cryo-EM structure, 3.3 Å (RTCB–PYROXD1 complex): NAD^+ interacts with residues Gly157, Ile158, Arg374, His410 and Thr412 |
| PYROXD1 D497A (enzyme, human, human PYROXD1 (UniProt Q8WU10) with D497A; source: E. coli BL21(DE3), purified (Glutathione Sepharose, 3C cleavage, SEC); not shown: GST, N-terminal, cleaved) MEAARPPPTAGKFVVVGGGIAGVTCAEQLATHFPSEDILLVTASPVIKAVTNFKQISKILEEFDVEEQSSTMLGKRFPNIKVIESGVKQLKSEEHCIVTEDGNQHVYKKLCLCAGAKPKLICEGNPYVLGIRDTDSAQEFQKQLTKAKRIMIIGNGGIALELVYEIEGCEVIWAIKDKAIGNTFFDAGAAEFLTSKLIAEKSEAKIAHKRTRYTTEGRKKEARSKSKADNVGSALGPDWHEGLNLKGTKEFSHKIHLETMCEVKKIYLQDEFRILKKKSFTFPRDHKSVTADTEMWPVYVELTNEKIYGCDFIVSATGVTPNVEPFLHGNSFDLGEDGGLKVDDHMHTSLPDIYAAGDICTTSWQLSPVWQQMRLWTQARQMGWYAAKCMAAASSGDSIDMDFSFELFAHVTKFFNYKVVLLGKYNAQGLGSDHELMLRCTKGREYIKVVMQNGRMMGAVLIGETDLEETFENLILNQMNLSSYGEDLLDPNIDIEAYFD | binds | – |
| PYROXD1 D500A (enzyme, human, human PYROXD1 (UniProt Q8WU10) with D500A; source: E. coli BL21(DE3), purified (Glutathione Sepharose, 3C cleavage, SEC); not shown: GST, N-terminal, cleaved) MEAARPPPTAGKFVVVGGGIAGVTCAEQLATHFPSEDILLVTASPVIKAVTNFKQISKILEEFDVEEQSSTMLGKRFPNIKVIESGVKQLKSEEHCIVTEDGNQHVYKKLCLCAGAKPKLICEGNPYVLGIRDTDSAQEFQKQLTKAKRIMIIGNGGIALELVYEIEGCEVIWAIKDKAIGNTFFDAGAAEFLTSKLIAEKSEAKIAHKRTRYTTEGRKKEARSKSKADNVGSALGPDWHEGLNLKGTKEFSHKIHLETMCEVKKIYLQDEFRILKKKSFTFPRDHKSVTADTEMWPVYVELTNEKIYGCDFIVSATGVTPNVEPFLHGNSFDLGEDGGLKVDDHMHTSLPDIYAAGDICTTSWQLSPVWQQMRLWTQARQMGWYAAKCMAAASSGDSIDMDFSFELFAHVTKFFNYKVVLLGKYNAQGLGSDHELMLRCTKGREYIKVVMQNGRMMGAVLIGETDLEETFENLILNQMNLSSYGEDLLDPNIDIEDYFA | binds | – |
| PYROXD1 F499A (enzyme, human, human PYROXD1 (UniProt Q8WU10) with F499A; source: E. coli BL21(DE3), purified (Glutathione Sepharose, 3C cleavage, SEC); not shown: GST, N-terminal, cleaved) MEAARPPPTAGKFVVVGGGIAGVTCAEQLATHFPSEDILLVTASPVIKAVTNFKQISKILEEFDVEEQSSTMLGKRFPNIKVIESGVKQLKSEEHCIVTEDGNQHVYKKLCLCAGAKPKLICEGNPYVLGIRDTDSAQEFQKQLTKAKRIMIIGNGGIALELVYEIEGCEVIWAIKDKAIGNTFFDAGAAEFLTSKLIAEKSEAKIAHKRTRYTTEGRKKEARSKSKADNVGSALGPDWHEGLNLKGTKEFSHKIHLETMCEVKKIYLQDEFRILKKKSFTFPRDHKSVTADTEMWPVYVELTNEKIYGCDFIVSATGVTPNVEPFLHGNSFDLGEDGGLKVDDHMHTSLPDIYAAGDICTTSWQLSPVWQQMRLWTQARQMGWYAAKCMAAASSGDSIDMDFSFELFAHVTKFFNYKVVLLGKYNAQGLGSDHELMLRCTKGREYIKVVMQNGRMMGAVLIGETDLEETFENLILNQMNLSSYGEDLLDPNIDIEDYAD | binds | – |
| PYROXD1 Y498A (enzyme, human, human PYROXD1 (UniProt Q8WU10) with Y498A; source: E. coli BL21(DE3), purified (Glutathione Sepharose, 3C cleavage, SEC); not shown: GST, N-terminal, cleaved) MEAARPPPTAGKFVVVGGGIAGVTCAEQLATHFPSEDILLVTASPVIKAVTNFKQISKILEEFDVEEQSSTMLGKRFPNIKVIESGVKQLKSEEHCIVTEDGNQHVYKKLCLCAGAKPKLICEGNPYVLGIRDTDSAQEFQKQLTKAKRIMIIGNGGIALELVYEIEGCEVIWAIKDKAIGNTFFDAGAAEFLTSKLIAEKSEAKIAHKRTRYTTEGRKKEARSKSKADNVGSALGPDWHEGLNLKGTKEFSHKIHLETMCEVKKIYLQDEFRILKKKSFTFPRDHKSVTADTEMWPVYVELTNEKIYGCDFIVSATGVTPNVEPFLHGNSFDLGEDGGLKVDDHMHTSLPDIYAAGDICTTSWQLSPVWQQMRLWTQARQMGWYAAKCMAAASSGDSIDMDFSFELFAHVTKFFNYKVVLLGKYNAQGLGSDHELMLRCTKGREYIKVVMQNGRMMGAVLIGETDLEETFENLILNQMNLSSYGEDLLDPNIDIEDAFD | binds | – |
| PYROXD1 (Homo sapiens; W239A) (protein, full-length from HeLa cDNA, N-terminal GST cut off with 3C protease; E. coli BL21(DE3); FAD-containing) MEAARPPPTAGKFVVVGGGIAGVTCAEQLATHFPSEDILLVTASPVIKAVTNFKQISKILEEFDVEEQSSTMLGKRFPNIKVIESGVKQLKSEEHCIVTEDGNQHVYKKLCLCAGAKPKLICEGNPYVLGIRDTDSAQEFQKQLTKAKRIMIIGNGGIALELVYEIEGCEVIWAIKDKAIGNTFFDAGAAEFLTSKLIAEKSEAKIAHKRTRYTTEGRKKEARSKSKADNVGSALGPDAHEGLNLKGTKEFSHKIHLETMCEVKKIYLQDEFRILKKKSFTFPRDHKSVTADTEMWPVYVELTNEKIYGCDFIVSATGVTPNVEPFLHGNSFDLGEDGGLKVDDHMHTSLPDIYAAGDICTTSWQLSPVWQQMRLWTQARQMGWYAAKCMAAASSGDSIDMDFSFELFAHVTKFFNYKVVLLGKYNAQGLGSDHELMLRCTKGREYIKVVMQNGRMMGAVLIGETDLEETFENLILNQMNLSSYGEDLLDPNIDIEDYFD | – | Km (purified protein): 1472.1 ± 105.0 µM |
| PYROXD1 ∆500 (domain or fragment, human, UniProt Q8WU10 1-499, looked up, human PYROXD1 (UniProt Q8WU10), C-terminal truncation ∆500 (lacks the C-terminal residue Asp500); source: E. coli BL21(DE3), purified (Glutathione Sepharose, 3C cleavage, SEC); not shown: GST, N-terminal, cleaved) MEAARPPPTAGKFVVVGGGIAGVTCAEQLATHFPSEDILLVTASPVIKAVTNFKQISKILEEFDVEEQSSTMLGKRFPNIKVIESGVKQLKSEEHCIVTEDGNQHVYKKLCLCAGAKPKLICEGNPYVLGIRDTDSAQEFQKQLTKAKRIMIIGNGGIALELVYEIEGCEVIWAIKDKAIGNTFFDAGAAEFLTSKLIAEKSEAKIAHKRTRYTTEGRKKEARSKSKADNVGSALGPDWHEGLNLKGTKEFSHKIHLETMCEVKKIYLQDEFRILKKKSFTFPRDHKSVTADTEMWPVYVELTNEKIYGCDFIVSATGVTPNVEPFLHGNSFDLGEDGGLKVDDHMHTSLPDIYAAGDICTTSWQLSPVWQQMRLWTQARQMGWYAAKCMAAASSGDSIDMDFSFELFAHVTKFFNYKVVLLGKYNAQGLGSDHELMLRCTKGREYIKVVMQNGRMMGAVLIGETDLEETFENLILNQMNLSSYGEDLLDPNIDIEDYF | binds | – |
| PYROXD1 ∆E496 (enzyme, human, source: E. coli BL21(DE3), purified (Glutathione Sepharose, 3C cleavage, SEC); not shown: GST, N-terminal, cleaved) MEAARPPPTAGKFVVVGGGIAGVTCAEQLATHFPSEDILLVTASPVIKAVTNFKQISKILEEFDVEEQSSTMLGKRFPNIKVIESGVKQLKSEEHCIVTEDGNQHVYKKLCLCAGAKPKLICEGNPYVLGIRDTDSAQEFQKQLTKAKRIMIIGNGGIALELVYEIEGCEVIWAIKDKAIGNTFFDAGAAEFLTSKLIAEKSEAKIAHKRTRYTTEGRKKEARSKSKADNVGSALGPDWHEGLNLKGTKEFSHKIHLETMCEVKKIYLQDEFRILKKKSFTFPRDHKSVTADTEMWPVYVELTNEKIYGCDFIVSATGVTPNVEPFLHGNSFDLGEDGGLKVDDHMHTSLPDIYAAGDICTTSWQLSPVWQQMRLWTQARQMGWYAAKCMAAASSGDSIDMDFSFELFAHVTKFFNYKVVLLGKYNAQGLGSDHELMLRCTKGREYIKVVMQNGRMMGAVLIGETDLEETFENLILNQMNLSSYGEDLLDPNIDIDYFD | binds | – |
